Source: publication PMC3019557 (The Journal of Cell Biology, 2011)

T1: CFP-PPARγ2 (peroxisome proliferator activated receptor γ2 fused to ECFP) (UniProt P37231-1 1-505)
T1 sequence (looked up): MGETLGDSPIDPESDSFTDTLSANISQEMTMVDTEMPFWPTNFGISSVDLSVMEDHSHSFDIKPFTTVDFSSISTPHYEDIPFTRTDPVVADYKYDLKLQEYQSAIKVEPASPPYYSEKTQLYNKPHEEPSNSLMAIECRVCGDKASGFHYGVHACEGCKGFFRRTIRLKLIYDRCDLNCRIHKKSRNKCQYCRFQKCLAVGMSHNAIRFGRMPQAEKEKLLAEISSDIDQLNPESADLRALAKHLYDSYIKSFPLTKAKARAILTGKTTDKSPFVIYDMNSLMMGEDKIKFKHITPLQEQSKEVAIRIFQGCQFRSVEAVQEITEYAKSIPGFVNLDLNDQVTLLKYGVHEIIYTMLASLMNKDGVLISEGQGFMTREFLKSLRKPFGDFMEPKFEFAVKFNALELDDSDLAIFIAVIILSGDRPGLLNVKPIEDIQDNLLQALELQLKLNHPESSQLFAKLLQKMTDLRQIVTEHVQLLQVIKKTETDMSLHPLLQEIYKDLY


Molecular target: T1, CFP-PPARγ2 (peroxisome proliferator …)
Test: FRET or BRET

fold change in FRET, MIX against vehicle [fold]	Binder
> 1.5	EYFP-SRC-2 (steroid receptor coactivator 2 fused to EYFP) (natural protein) not shown
> 1.5	EYFP-SRC-3 (steroid receptor coactivator 3 fused to EYFP) (natural protein) not shown
